{"source": "patent US20190016785A1", "about": "(HUMABS BIOMED, published 2019)", "binders": {"B1": {"name": "HBC34-V7 (antibody, V domains shown)", "VH": "ELQLVESGGGWVQPGGSQRLSCAASGRIFRSFYMSWVRQAPGKGLEWVATINQDGSEKLYVDSVKGRFTISRDNAKNSLFLQMNNLRVEDTAVYYCAAWSGNSGGMDVWGQGTTVSVSS", "VL": "SYELTQPPSVSVSPGQTVSIPCSGDKLGNKNVCWFQHKPGQSPVLVIYEVKYRPSGIPERFSGSNSGNTATLTISGTQAMDEAAYFCQTFDSTTVVFGGGTRLTVL", "notes": "also called variant 7; HMB34-V7"}, "B2": {"name": "HBC34 (antibody, V domains shown)", "VH": "B1 VH", "VL": "B1 VL with F90W", "notes": "also called human monoclonal antibody HBC34; WT"}}, "key": {"[1]": {"target": "HBsAg of HBV genotype D (GenBank J02203, ayw3) (hepatitis B virus, genotype D, UniProt P03138 164-389)", "assay": "flow cytometry, permeabilized transfected Hep2 cells, 5000 to 7 ng/ml"}, "HBsAg P120T": {"target": "HBsAg P120T (hepatitis B virus, genotype D, UniProt Q913A6 175-400)", "assay": "flow cytometry, permeabilized transfected Hep2 cells, 5 µg/ml"}}, "note": "Changes are numbered by the printed parent chain.", "data": [{"binder": "B1", "values": [{"measurement": "binding result", "setting": "[1]", "result": "binds"}]}, {"binder": "B2", "values": [{"measurement": "binding result", "setting": "HBsAg P120T", "result": "binds"}]}]}
